In article PMC7271519, “The DISC1 R264Q variant increases affinity for the dopamine D2 receptor and increases GSK3 activity” (Molecular Brain, 2020):
Positions count from the first letter of the chain named. Names may count otherwise.

B1: GST-DISC1NT (human, wild type) (domain or fragment)
chain: MPGGGPQGAPAAAGGGGVSHRAGSRDCLPPAACFRRRRLARRPGYMRSSTGPGIGFLSPAVGTLFRFPGGVSGEESHHSESRARQCGLDSRGLLVRSPVSKSAAAPTVTSVRGTSAHFGIQLRGGTRLPDRLSWPCGPGSAGWQQEFAAMDSSETLDASWEAACSDGARRVRAAGSLPSAELSSNSCSPGCGPEVPPTPPGSHSAFTSSFSFIRLSLGSAGERGEAEGCPPSREAESHCQSPQEMGAKAASLDGPHEDPRCLSRPFSLLATRVSADLAQAARNSSRPERDMH
modifications: GST carrier omitted; limits not given, N-terminal head region taken from the UniProt feature 1-292
B2: GST-DISC1-NT R264Q (human) (domain or fragment)
chain: B1 chain with R264Q
modifications: GST carrier omitted; limits not given, N-terminal head region taken from the UniProt feature 1-292
B3: GST-DISC1NT (mouse, wild type) (domain or fragment)
chain: MQGGGPRGAPIHSPSHGADSGHGLPPAVAPQRRRLTRRPGYMRSTAGSGIGFLSPAVGMPHPSSAGLTGQQSQHSQSKAGQCGLDPGSHCQASLVGKPFLKSSLVPAVASEGHLHPAQRSMRKRPVHFAVHSKNDSRQSERLTGSFKPGDSGFWQELLSSDSFKSLAPSLDAPWNKGSRGLKTVKPLASPALNGPADIASLPGFQDTFTSSFSFIQLSLGAAGERGEAEGCLPSREAEPLHQRPQEMAAEASSSDRPHGDPRHLWTFSLHAAPGLADLAQVTRSSSRQSECGTV
modifications: GST carrier omitted; limits not given, N-terminal head region taken from the UniProt feature 1-294
B4: GST-Disc1-L100PNT (mouse) (domain or fragment)
chain: B3 chain with L100P
modifications: GST carrier omitted; limits not given, N-terminal head region taken from the UniProt feature 1-294

What was measured:
[1] = target: T1, TAT-D2pep[K211-T225] peptide (UniProt P14416 211-225); assay: SPR; TAT-D2pep amine-coupled to carboxymethylated dextran chip (600 RU); human GST-DISC1NT or R264Q flowed at 0-4.0 uM; 25 °C; TBS-T (150 mM NaCl, 1 mM CaCl2, 1 mM MgCl2, 10 mM Tris pH 7.4, 0.005% P-20); 50 ul/min; equilibrium analysis; conditions: both partners purified
T1 construct: dopamine D2 receptor, residues K211-T225; also called D2 [K211-T225]

[2] = target: T1, TAT-D2pep[K211-T225] peptide; assay: SPR; TAT-D2pep amine-coupled to carboxymethylated dextran chip; mouse GST-Disc1-L100PNT at 25-400 nM, GST-DISC1NT at 100 nM-1.6 uM; 25 °C; TBS-T pH 7.4; 50 ul/min; association 180 s, dissociation 300 s; KD from association and dissociation rates; conditions: both partners purified

| Binder | Kd [1] [nM] | Kd [2] [nM] |
| --- | --- | --- |
| B1 | 653 ± 6 | – |
| B2 | 243 ± 3 | – |
| B3 | – | 760 ± 20 |
| B4 | – | 100 ± 2 |
